Source: paper PMC5392032 (Science Advances, 2017)

Target: the molecule itself
Assay: SEC-MALS

B1: Vps4^E233Q (ATP hydrolysis-deficient mutant of Saccharomyces cerevisiae vacuolar protein sorting-associated protein 4) (enzyme)
chain: KKSPSAGSGSNGGNKKISQEEGEDNGGEDNKKLRGALSSAILSEKPNVKWEDVAGLEGAKEALKEAVILPVKFPHLFKGNRKPTSGILLYGPPGTGKSYLAKAVATEANSTFFSVSSSDLVSKWMGESEKLVKQLFAMARENKPSIIFIDQVDALTGTRGEGESEASRRIKTELLVQMNGVGNDSQGVLVLGATNIPWQLDSAIRRRFERRIYIPLPDLAARTTMFEINVGDTPCVLTKEDYRTLGAMTEGYSGSDIAVVVKDALMQPIRKIQSATHFKDVSTEDDETRKLTPCSPGDDGAIEMSWTDIEADELKEPDLTIKDFLKAIKSTRPTVNEDDLLKQEQFTRDFGQEGN
stoichiometry N: 6
